Test results reported in article PMC11549327 (Nature Communications, 2024).

Molecular target: the molecule itself
Assay: cryo-EM structure

B1: E. coli ClpP-His6 (tetradecamer) (enzyme)
chain: not shown
B1 was tested, and the “stoichiometry N” value was 14.
